Measured values as given in the supplement of paper PMC9170038.

System: MS2 coat protein
Test: apparent KD of MS2 coat protein; higher = weaker reporter binding
Settings: Eterna round: R107
Procedure, shortened: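 Apparent KD stands for the median, per design, of fits to normalised cluster binding curves. The curves came from titrating on-chip-transcribed RNA switches on Illumina sequencing clusters with SNAP-549-labelled MS2 coat protein, twofold from 0.7 or 1.5 nM to 3 µM. Buffer was 100 mM Tris-HCl pH 7.5, 80 mM KCl, 4 mM MgCl2, without or with constant ligand.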

[1] = input ligand: theophylline 20 uM
[2] = input ligand: tryptophan 2.4 mM
[3] = input ligand: theophylline 2 mM

Row | Sequence | apparent KD of MS2 coat protein (input ligand: arginine 13.2 mM) [nM] | apparent KD of MS2 coat protein [1] [nM] | apparent KD of MS2 coat protein [2] [nM] | apparent KD of MS2 coat protein (input ligand: none) [nM] | apparent KD of MS2 coat protein [3] [nM]
1 | AUACAUGAGGAUCACCCAUGUAUAGUCGAUACCAGCUCAAGGAAGAGCCCUUGGCAGCGACACUGGUAUCCAUGGGUGAUACCAG [(Ms2)-(Theo)-(T)'-(M)'-(T)''_Design4] | 17.8 | 36.4 | 19.3 |  | 
2 | GGAUAGGACACGGCCGCCACUACCUAGGAUACUAGCAACAUUUGGGUACAAGAGGAUCACCCUUGUAGGACCGGGUGUCCUAUCG | 23.1 | 28 | 59 | 22.1 | 25.5
3 | GCAAUAACGAUUGAUACCAGCAUGUUAACAUGAGGAUCACCCAUGUUAAGGAUAACAUAAUGCCCUUGGCAGCAACGGAAAGCCG [Ac] | 16.8 | 22.9 | 18.5 |  | 
4 | UGUAUUGGAAACAGUACUAGUGAUCCGGUCCGAGGACCGGUACGGCCGCCACUCGAUAUAAAUAAACAUGAGGAUCACCCAUGUA [Ex Tryptophan A 13] | 23.3 | 17.1 |  |  | 18
5 | AUACAUGAGGAUCACCCAUGUGAUGGCCGGCGAGGACCGGUACGGCCGCCACUCGUGAUCCGUCCUGAGAGCAAAGCUCUCAGCA [Macete] | 76 | 258 | 337 | 141 | 292
6 | GGGACUAGAUCGGCCGCCACUGAUGGGACAUGAGGAUCACCCAUGUACGAAGUGAUCCAAUAAAUCAGGACCGGGAUCACUUGUA [Tryp B Ex t6] | 64.3 | 137 |  |  | 173
7 | UACAUGAGGAUCACCCAUGUCGGCAGGGAAGGAGCGGCAAUAAAGCCAGGUAGGUCGCCCAUUAGUAUUUAUAAAUAAAUAUCCA [Same State - Arginine A] | 53.6 | 74.4 | 66.9 | 90 | 75.9
8 | AAUUAUCACGGAAGGAGCGUCAUGAAAUUGAUACAUGAGGAUCACCCAUGUGAGUGUUAGAGACAGGUAGGUCGCCGAUUAUUGA [JR_AAArginiB_Sub028] | 24.9 | 43.1 | 31 | 30.7 | 49.3
9 | CAUAUAUAAGCGGCCGCCACUUACUCAUGAGGUAACAACAUGAGGAUCACCCAUGUUUGAGGAUCAAGGACCGGGCUUAUAUAUG [AstrosSSTryB#5] | 27 | 27.3 |  |  | 28.5
10 | UCGCGAUAGAGAAGGAGCGUCAACACCACAGAACAUGAGGAUCACCCAUGUGUUACUUUUAGACAGGUAGGUCGCUCUAGCGCUU [JR_Nu_ExcArginiB_Sub028] | 14 | 18.3 | 13.3 | 12.2 | 16.4
11 | AGCCUAUUACAUGAGGAUCACCCAUGUGAUACCAGUCAGGAAACUGACCCUUGGCAGCGCAUGAGGAUCACCCAUGCGCUAGGCA [Omei Theo A Exc A v5] | 9.15 | 12.3 | 10 |  | 
12 | GGCCCUGCGGGCGCCCGCAGGGCCGCGGAUACCAGCGAGGUCCAUCGCCCUUGGCAGCCGAACAUGAGGAUCACCCAUGUCGGUG [Same State - Theophylline A Attempt #8 (HarryS)] | 10.6 | 20.4 | 12.9 | 12.9 | 89.6
13 | UAUGAGCGCACGGCCGCCACUGUCUUCAUCUGUUUGUCUACAUGAGGAUCACCCAUGUUGGUUUACAGGACCGGGUGCAACUAUG [SSTryp B #10] | 26.9 | 38.1 |  |  | 33.8
14 | UCGACAGUGAACGAUACCAGCGUCACGUGGCCGGUGGUCACAUGAGGAUCACCCAUGUAACGCCCUUGGCAGCGUGCACGUAUCA [Latedirius] | 20.5 | 46.3 | 20.5 |  | 
15 | AAUCAUAGGGCGGCCGCCACUAAACAUGAGGAUCACCCAUGUCUCGAGGGCUUGCGUUUGGGAAGUAGGACCGGGCCAAUAGUAA [Tryp B Ex Mod2] | 18 | 23 | 16.1 | 19.1 | 17
